Laboratory results taken from paper PMC4794390.
Numbering of substitutions follows the chain as printed. Numbers in names are those of the source.

B1: purine nucleoside phosphorylase (PNP) (Homo sapiens) (protein)
chain: MENGYTYEDYKNTAEWLLSHTKHRPQVAIICGSGLGGLTDKLTQAQIFDYGEIPNFPRSTVPGHAGRLVFGFLNGRACVMMQGRFHMYEGYPLWKVTFPVRVFHLLGVDTLVVTNAAGGLNPKFEVGDIMLIRDHINLPGFSGQNPLRGPNDERFGDRFPAMSDAYDRTMRQRALSTWKQMGEQRELQEGTYVMVAGPSFETVAECRVLQKLGADAVGMSTVPEVIVARHCGLRVFGFSLITNKVIMDYESLEKANHEEVLAAGKQAAQKLEQFVSILMASIPLPDKAS
B2: purine nucleoside phosphorylase (PNP) (Homo sapiens; E258D/L261A) (protein)
chain: B1 chain with E258D, L261A

Substrate: Nc1nc2c(ncn2[C@@H]2O[C@H](CO)[C@@H](O)[C@H]2O)c(=O)[nH]1
Test: purified protein
Assay type: biochemical, Homo sapiens
[1] = phosphate catalytic site (His257, Asn243, Glu201)

| Protein | Km [1] [µM] | kcat [1] [s⁻¹] | kcat/Km [1] [M⁻¹ s⁻¹] | Km (phosphate catalytic site) [µM] | kcat (phosphate catalytic site) [s⁻¹] | kcat/Km (phosphate catalytic site) [M⁻¹ s⁻¹] |
| --- | --- | --- | --- | --- | --- | --- |
| B1 | 63 ± 8 | 8.8 ± 0.5 | 140000 |  |  |  |
| B2 |  |  |  | 73 ± 13 | 4.2 ± 0.4 | 58000 |
